Test results: the supplement of paper PMC10567573

B1: PPFIA4 (parent)
chain: PGVHRRYSALREESAKDWETSPLP
B2: CDC14A (parent)
chain: GPHPKSKIENGYPLHAPEAYFPYF

Variants of: B1
Assay: protein stability index of a GFP-peptide fusion (GPS, HEK-293T) (PSI 1-6); higher = more stable
Settings: c terminus: a fixed tail appended
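Also: lentivirally expressed fusions sorted by FACS into six bins by GFP to DsRed ratio, PSI derived from sequencing read proportions per bin multiplied by bin number.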

Variant | protein stability index
PGVHRRYSALREESAKDWEWSPLP [T20W] | 2.3
PGVHRRYSALREESAKDWEYSPLP [T20Y] | 3.46
PGVHRRYSALREESAKDWETAPLP [S21A] | 4.93
PGVHRRYSALREESAKDWETCPLP [S21C] | 3.88
PGVHRRYSALREESAKDWETDPLP [S21D] | 5.1
PGVHRRYSALREESAKDWETEPLP [S21E] | 4.5
PGVHRRYSALREESAKDWETFPLP [S21F] | 3.34
PGVHRRYSALREESAKDWETGPLP [S21G] | 3.25
PGVHRRYSALREESAKDWETHPLP [S21H] | 3.42
PGVHRRYSALREESAKDWETIPLP [S21I] | 3.39
PGVHRRYSALREESAKDWETKPLP [S21K] | 3.98
PGVHRRYSALREESAKDWETLPLP [S21L] | 3.6
PGVHRRYSALREESAKDWETMPLP [S21M] | 3.67
PGVHRRYSALREESAKDWETNPLP [S21N] | 5.33
PGVHRRYSALREESAKDWETPPLP [S21P] | 4.08
PGVHRRYSALREESAKDWETQPLP [S21Q] | 4.24
PGVHRRYSALREESAKDWETRPLP [S21R] | 4.03
PGVHRRYSALREESAKDWETTPLP [S21T] | 4.07
PGVHRRYSALREESAKDWETVPLP [S21V] | 3.76
PGVHRRYSALREESAKDWETWPLP [S21W] | 4.24
PGVHRRYSALREESAKDWETYPLP [S21Y] | 3.2
PGVHRRYSALREESAKDWETSALP [P22A] | 4.11
PGVHRRYSALREESAKDWETSCLP [P22C] | 4.02

Variant | protein stability index
PGVHRRYSALREESAKDWETSDLP [P22D] | 4.63
PGVHRRYSALREESAKDWETSELP [P22E] | 4.94
PGVHRRYSALREESAKDWETSFLP [P22F] | 3.19
PGVHRRYSALREESAKDWETSHLP [P22H] | 4.28
PGVHRRYSALREESAKDWETSILP [P22I] | 3.48
PGVHRRYSALREESAKDWETSKLP [P22K] | 4.23
PGVHRRYSALREESAKDWETSLLP [P22L] | 3.67
PGVHRRYSALREESAKDWETSNLP [P22N] | 4.52
PGVHRRYSALREESAKDWETSQLP [P22Q] | 4.63
PGVHRRYSALREESAKDWETSRLP [P22R] | 3.18
PGVHRRYSALREESAKDWETSSLP [P22S] | 4.31
PGVHRRYSALREESAKDWETSTLP [P22T] | 3.04
PGVHRRYSALREESAKDWETSVLP [P22V] | 3.68
PGVHRRYSALREESAKDWETSYLP [P22Y] | 3.3
PGVHRRYSALREESAKDWETSPAP [L23A] | 4.67
PGVHRRYSALREESAKDWETSPDP [L23D] | 4.55
PGVHRRYSALREESAKDWETSPEP [L23E] | 3.3
PGVHRRYSALREESAKDWETSPFP [L23F] | 4.27
PGVHRRYSALREESAKDWETSPHP [L23H] | 4.53
PGVHRRYSALREESAKDWETSPIP [L23I] | 4.26
PGVHRRYSALREESAKDWETSPKP [L23K] | 5.38
PGVHRRYSALREESAKDWETSPMP [L23M] | 4.79
PGVHRRYSALREESAKDWETSPNP [L23N] | 5

Variant | protein stability index
PGVHRRYSALREESAKDWETSPQP [L23Q] | 4.37
PGVHRRYSALREESAKDWETSPRP [L23R] | 4.25
PGVHRRYSALREESAKDWETSPSP [L23S] | 4.56
PGVHRRYSALREESAKDWETSPVP [L23V] | 2.13
PGVHRRYSALREESAKDWETSPYP [L23Y] | 3.87
PGVHRRYSALREESAKDWETSPLC [P24C] | 4.22
PGVHRRYSALREESAKDWETSPLD [P24D] | 4.59
PGVHRRYSALREESAKDWETSPLE [P24E] | 4.71
PGVHRRYSALREESAKDWETSPLF [P24F] | 3.59
PGVHRRYSALREESAKDWETSPLG [P24G] | 4.25
PGVHRRYSALREESAKDWETSPLH [P24H] | 3.19
PGVHRRYSALREESAKDWETSPLI [P24I] | 3.87
PGVHRRYSALREESAKDWETSPLK [P24K] | 4.6
PGVHRRYSALREESAKDWETSPLL [P24L] | 3.62
PGVHRRYSALREESAKDWETSPLM [P24M] | 3.97
PGVHRRYSALREESAKDWETSPLN [P24N] | 4.43
PGVHRRYSALREESAKDWETSPLQ [P24Q] | 3.45
PGVHRRYSALREESAKDWETSPLS [P24S] | 3.83
PGVHRRYSALREESAKDWETSPLT [P24T] | 4.04
PGVHRRYSALREESAKDWETSPLV [P24V] | 4.15
PGVHRRYSALREESAKDWETSPLY [P24Y] | 3.45

Variants of: B2
Assay: as above
Settings: c terminus: a fixed tail appended

Variant | protein stability index
APHPKSKIENGYPLHAPEAYFPYF [G1A] | 1.82
CPHPKSKIENGYPLHAPEAYFPYF [G1C] | 2.1
DPHPKSKIENGYPLHAPEAYFPYF [G1D] | 2.51
EPHPKSKIENGYPLHAPEAYFPYF [G1E] | 2.44
FPHPKSKIENGYPLHAPEAYFPYF [G1F] | 2.01
HPHPKSKIENGYPLHAPEAYFPYF [G1H] | 2.08
IPHPKSKIENGYPLHAPEAYFPYF [G1I] | 1.85
KPHPKSKIENGYPLHAPEAYFPYF [G1K] | 1.57
LPHPKSKIENGYPLHAPEAYFPYF [G1L] | 2.05
MPHPKSKIENGYPLHAPEAYFPYF [G1M] | 2.51
NPHPKSKIENGYPLHAPEAYFPYF [G1N] | 2.56
QPHPKSKIENGYPLHAPEAYFPYF [G1Q] | 2.03
RPHPKSKIENGYPLHAPEAYFPYF [G1R] | 1.88
SPHPKSKIENGYPLHAPEAYFPYF [G1S] | 1.99
TPHPKSKIENGYPLHAPEAYFPYF [G1T] | 2.7
VPHPKSKIENGYPLHAPEAYFPYF [G1V] | 1.89
WPHPKSKIENGYPLHAPEAYFPYF [G1W] | 1.73
YPHPKSKIENGYPLHAPEAYFPYF [G1Y] | 1.51
GAHPKSKIENGYPLHAPEAYFPYF [P2A] | 2.35
GCHPKSKIENGYPLHAPEAYFPYF [P2C] | 1.67
GDHPKSKIENGYPLHAPEAYFPYF [P2D] | 2.29
GEHPKSKIENGYPLHAPEAYFPYF [P2E] | 2.09
GFHPKSKIENGYPLHAPEAYFPYF [P2F] | 2.8
GGHPKSKIENGYPLHAPEAYFPYF [P2G] | 1.74
GHHPKSKIENGYPLHAPEAYFPYF [P2H] | 2.46
GIHPKSKIENGYPLHAPEAYFPYF [P2I] | 2.28
GKHPKSKIENGYPLHAPEAYFPYF [P2K] | 1.94
